Results: patent publication US20210032313A1 (Daiichi Sankyo, published 2021)

T1: human KLK5 (human, UniProt Q9Y337 67-293)
T1 sequence: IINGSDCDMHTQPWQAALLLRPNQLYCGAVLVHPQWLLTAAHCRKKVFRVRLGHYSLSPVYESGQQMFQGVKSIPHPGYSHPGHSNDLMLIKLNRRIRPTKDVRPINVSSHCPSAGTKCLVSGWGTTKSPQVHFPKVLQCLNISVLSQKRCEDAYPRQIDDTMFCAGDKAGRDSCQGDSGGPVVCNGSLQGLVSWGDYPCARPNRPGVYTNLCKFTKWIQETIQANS

T2: human KLK14 (human, UniProt Q9P0G3 25-251)
T2 sequence: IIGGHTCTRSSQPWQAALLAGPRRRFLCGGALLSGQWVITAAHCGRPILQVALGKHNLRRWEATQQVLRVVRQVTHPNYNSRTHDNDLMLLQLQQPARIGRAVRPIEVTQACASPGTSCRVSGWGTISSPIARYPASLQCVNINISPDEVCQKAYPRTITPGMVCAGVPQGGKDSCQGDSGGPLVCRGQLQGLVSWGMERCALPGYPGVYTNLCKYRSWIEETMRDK


Columns and labels:
human KLK5 = target: T1, human KLK5; assay: cell-based or functional assay
human KLK7 = human KLK7 (human, UniProt P49862 30-253); assay: cell-based or functional assay
human KLK14 = target: T2, human KLK14; assay: cell-based or functional assay
KLK4 = target: T3, KLK4 (human, UniProt Q9Y5K2); assay: fluorogenic peptide substrate cleavage, 1 µM inhibitor
T3 construct: commercial enzyme (R&D Systems, 1719-SE); 1 µg/mL in the assay; substrate Boc-Val-Pro-Arg-AMC 100 µM; also called Human KLK4; hKLK4
Method: FIG. 3F includes graphs to evaluate the cross-reactivity of each inhibitory peptide with proteases, using the degradation of a peptide substrate as an index. For evaluating the Human KLK1 inhibitory activity, hKLK1 (R&D Systems, Inc., 2337-SE) with a final concentration of 0.1 μg/mL and a substrate peptide Pro-Phe-Arg-MCA (PEPTIDE […], INC., 3096-v) with a final concentration of 100 μM were used. For evaluating the Human KLK2 inhibitory activity, hKLK2 (R&D Systems, Inc., 4104-SE) with a final concentration of 2 μg/mL and a substrate peptide Pro-Phe-Arg-MCA (PEPTIDE […], INC., 3096-v) with a final concentration of 100 μM were used. For evaluating the Human KLK4 inhibitory activity, hKLK4 (R&D Systems, Inc., 1719-SE) with a final concentration of 1 μg/mL and a substrate peptide Boc-Val-Pro-Arg-AMC (R&D Systems, Inc., ES011) with a final concentration of 100 μM were used.
The specificities for other proteases were evaluated using the degradation of a substrate peptide as an index. As in the method described in (3-1), 25 μL each of a protease and a sample diluted with an assay buffer were mixed (to a final concentration of sample of 1 μM), followed by a reaction at 37° C. for 20 minutes. Thereafter, 50 μL of a substrate diluted with an assay buffer was added thereto, and the fluorescence signal was measured using Enspire (PerkinElmer). An assay buffer (50 mM Tris, 150 mM NaCl, pH 8.0) was used for the evaluation of the protease activity, and a PROTEOSAVE® SS96F black plate (Sumitomo Bakelite Co., Ltd.) was used for the reaction and the measurement. The combinations of the protease and the substrate used for the evaluation of the specificity were as follows.

human KLK7, sequence (P49862 30-253): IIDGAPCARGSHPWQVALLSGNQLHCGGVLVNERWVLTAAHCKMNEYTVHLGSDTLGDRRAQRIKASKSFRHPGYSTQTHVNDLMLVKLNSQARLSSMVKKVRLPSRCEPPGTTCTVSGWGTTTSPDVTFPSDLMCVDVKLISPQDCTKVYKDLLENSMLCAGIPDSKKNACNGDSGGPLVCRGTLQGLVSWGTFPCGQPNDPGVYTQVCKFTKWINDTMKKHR
T3 sequence (Q9Y5K2 31-254 limits assumed): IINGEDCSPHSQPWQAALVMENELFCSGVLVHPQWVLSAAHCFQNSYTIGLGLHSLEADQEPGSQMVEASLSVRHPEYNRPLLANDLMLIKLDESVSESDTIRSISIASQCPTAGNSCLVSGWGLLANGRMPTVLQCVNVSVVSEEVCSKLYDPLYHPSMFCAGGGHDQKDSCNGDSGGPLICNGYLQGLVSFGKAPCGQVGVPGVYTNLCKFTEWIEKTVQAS

| IC50(nM) for hKLK5 (human KLK5) | IC50(nM) for hKLK7 (human KLK7) | IC50(nM) for hKLK14 (human KLK14) | binding result (KLK4) | Binder |
| --- | --- | --- | --- | --- |
| 6.8 nM | > 1000 nM | 72 nM | binds | KLK5/KLK14 inhibitory peptide K51069 (SPINK2 mutant peptide made in E. coli) GPQFGLFSKYRTPNCSQVVETYCNRDYDPVCGSDMSTYANECTLCMKIREGGHNIKIIRNGPCGG |
| 6.8 nM | > 1000 nM | 17 nM | binds | KLK5/KLK14 inhibitory peptide K50015 (SPINK2 mutant peptide made in E. coli) GPQFGLFSKYRTPNCYDTTTHYCSREYDPVCGSDMSTYANECTLCMKIREGGHNIKIIRNGPCGG |
